The results in this text go back to patent US20190183138.

For orientation: Km means the concentration of substrate that gives half-maximal velocity.

One data set concerns the target bovine κ-casein (UniProt P02668).
For another data set, the target named is T1, bovine β-casein (UniProt P02666).
T1 sequence: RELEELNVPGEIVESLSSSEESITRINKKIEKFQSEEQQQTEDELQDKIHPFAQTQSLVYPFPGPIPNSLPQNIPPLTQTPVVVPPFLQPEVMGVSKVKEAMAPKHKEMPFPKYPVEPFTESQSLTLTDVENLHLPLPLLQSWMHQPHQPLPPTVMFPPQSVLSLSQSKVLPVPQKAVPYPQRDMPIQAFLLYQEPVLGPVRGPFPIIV

Chain of bovine κ-casein (P02668 22-190): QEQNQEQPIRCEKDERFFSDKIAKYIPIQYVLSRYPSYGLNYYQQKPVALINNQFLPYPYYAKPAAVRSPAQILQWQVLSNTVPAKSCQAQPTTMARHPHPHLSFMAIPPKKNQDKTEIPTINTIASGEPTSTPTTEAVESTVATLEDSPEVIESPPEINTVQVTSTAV

On to “Cynanchum otophyllum Schneid. protease QA (identified as asclepain of Asclepias Linn.)”, for which, in the data set with bovine α-casein, the “hydrolysis of isolated casein as a function of time (SDS-PAGE)” value (“hydrolysis of isolated casein” for short) is “α-casein was only partially hydrolyzed”. Besides, in the data set with bovine κ-casein, the Km came to 0.397 ± 0.002 mg/mL, the “hydrolysis of isolated casein” value is “hydrolysis by QA required almost 4 h”, the kcat (min) was found to be 1.66 s⁻¹ and the kcat./Km [mL/(mg · min)] (mL/(mg · min)) was 251 ± 6.11. Moreover, the “hydrolysis of isolated casein” value with bovine β-casein is “β-Casein and κ-casein were completely hydrolyzed after 4 h of incubation”.

Turning to “Cynanchum otophyllum Schneid. protease QC (identified as cysteine protease B of Calotropis R. Br.)”, the “hydrolysis of isolated casein” value with bovine α-casein is “α-casein was only partially hydrolyzed”. Besides, in the data set with bovine κ-casein, the Km came to 1.708 ± 0.014 mg/mL, the “hydrolysis of isolated casein” value was “Most of the κ-casein was hydrolyzed by QC after 30 min of incubation”, the kcat (min) worked out at 1.39 s⁻¹ and the kcat./Km [mL/(mg · min)] (mL/(mg · min)) was 49 ± 1.93. In addition, the “hydrolysis of isolated casein” value with bovine β-casein was “The QC also exhibited a higher rate of hydrolysis than QA for β-casein and κ-casein”.
